We go through nine molecules from publication PMC8368996 (2021).

Sequences and labels used below:
B1: NEDD4L WW2 domain (domain or fragment)
chain: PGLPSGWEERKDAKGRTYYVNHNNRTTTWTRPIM
B2: NEDD4L WW1 domain (domain or fragment)
chain: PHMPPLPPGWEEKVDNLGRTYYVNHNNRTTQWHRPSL
B3: NEDD4L WW4 domain (domain or fragment)
chain: GPLPPGWEERIHLDGRTFYIDHNSKITQWEDPRL
B4: NEDD4L WW3 domain (domain or fragment)
chain: KVTQSFLPPGWEMRIAPNGRPFFIDHNTKTTTWEDPRLKFPVHMRSK

Test in all cases: FP
Assay [1] concerns the target PPxYc.
Target sequence in this assay (Q96PU5 385-418): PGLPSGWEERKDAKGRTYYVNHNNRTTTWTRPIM
The target of assay [2] is PPxYc. This is another data set of the same source.
Target sequence in this assay (Q96PU5 other isoform, or with tags, fused parts or gaps): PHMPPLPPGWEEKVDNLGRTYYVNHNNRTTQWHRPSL
The target in assay [3] is B4.
In assay [4] the target is PPxYc. The source holds these as a separate data set.
The target in the assay “NEDD4L WW1 domain” is B2.
The target in the assay “NEDD4L WW4 domain” is B3.
For the assay “NEDD4L WW2 domain”, the target named is B1.
Assay [5] deals with B4. The source holds these as a separate data set.
The target of assay [6] is PPxYc. This is another data set of the same source.

Like-named read-outs stand apart in the source and are kept apart here. Ends that are not written are not given here. Oregon Green 488 maleimide = Oregon Green 488 maleimide fluorescent label attached to the N-terminal cysteine Bounds are passed on as bounds.

NEDD4L WW2 domain, sequence (Q96PU5 385-418): as the sequence (Q96PU5 385-418) above
NEDD4L WW1 domain, sequence (chain, as listed by the source): as the sequence (Q96PU5 other isoform, or with tags, fused parts or gaps) above

Turning to B1, the Kd with PPxYc [1] is over 800 µM.
B2 showed a Kd in the assay with PPxYc [2] of over 400 µM.
In the assay with NEDD4L WW3 domain [3], C(Oregon Green 488 maleimide)MQNNEEPPTYEEAKV [AMOT PPxY1 L106P mutant peptide] came in with a Kd of 6.7 µM.
Regarding B3, in the assay with PPxYc [4], the Kd is over 400 µM.
For the molecule C(Oregon Green 488 maleimide)MQNNEELPTYEEAKV [AMOT PPxY1 peptide (residues 100-114), Oregon Green 488-labelled], the Kd in the assay with NEDD4L WW3 domain [3] was determined as 6.3 µM; with NEDD4L WW1 domain, 180 µM; with NEDD4L WW4 domain, 60 µM; with NEDD4L WW2 domain it was 34 µM.
In the case of C(Oregon Green 488 maleimide)LMRYQHPPEYGAARP [AMOT PPxY3 peptide (residues 278-292), Oregon Green 488-labelled], the Kd in the assay with NEDD4L WW3 domain [5] is 100 µM; in the assay with NEDD4L WW1 domain it was over 400 µM; with NEDD4L WW4 domain it was over 400 µM; with NEDD4L WW2 domain it was 280 µM.
For the molecule C(Oregon Green 488 maleimide)MEHRGPPPEYPFKGM [AMOT PPxY2 peptide (residues 233-247), Oregon Green 488-labelled], the Kd with NEDD4L WW3 domain [5] amounted to 28 µM; with NEDD4L WW1 domain, 49 µM; with NEDD4L WW4 domain, 210 µM; with NEDD4L WW2 domain, 30 µM.
Turning to B4, in the assay with PPxYc [6], the Kd was over 250 µM.
On to C(Oregon Green 488 maleimide)MEHRGPLPEYPFKGM [AMOT PPxY2 P239L mutant peptide], for which the affinity with NEDD4L WW3 domain [3], expressed as Kd, was 78 µM.
